Drawing on paper PMC9359528, “DNA binding by the Rad9A subunit of the Rad9-Rad1-Hus1 complex”, this text covers Kd for one molecule.

Common to all, as to assay: EMSA; EMSA: 20 mM Tris-HCl pH 7.6, 80 mM NaCl, 1 mM DTT, 1 mM EDTA, 1.5% glycerol, 200 ng/ml poly dI/dC, 50 ug/ml BSA, 10 nM DNA; 6% native PAGE in 50 mM Tris-borate
On the technique in general: A gel shift assay detects complexes by their altered migration in electrophoresis.

The target in one series is T1, QM1 Rad9A 1-266 (Homo sapiens, UniProt Q99638 1-266, K11A;K15A;R22A;K78A).
T1 sequence: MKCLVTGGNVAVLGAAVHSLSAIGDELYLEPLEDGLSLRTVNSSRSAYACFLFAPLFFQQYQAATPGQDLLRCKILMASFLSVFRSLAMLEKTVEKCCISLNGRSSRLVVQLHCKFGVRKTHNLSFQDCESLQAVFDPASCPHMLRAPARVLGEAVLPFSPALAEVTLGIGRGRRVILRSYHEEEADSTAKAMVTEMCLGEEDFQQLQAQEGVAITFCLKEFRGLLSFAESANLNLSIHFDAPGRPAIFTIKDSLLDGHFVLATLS
The conditions noted are these: protein: recombinant; tags: His; label: 5'-fluorescein (6-carboxyfluorescein) on HC40; blunt.

The next series deals with T2, TM Rad9A 1-266 (Homo sapiens, UniProt Q99638 1-266, K11A;K15A;R22A).
T2 sequence: T1 sequence with A78K
Particulars: protein: recombinant; tags: His; label: 5'-fluorescein (6-carboxyfluorescein) on HC40; blunt.

In the next series the target is T3, K220A Rad9A 94-266 (Homo sapiens, UniProt Q99638 94-266, K220A).
T3 sequence: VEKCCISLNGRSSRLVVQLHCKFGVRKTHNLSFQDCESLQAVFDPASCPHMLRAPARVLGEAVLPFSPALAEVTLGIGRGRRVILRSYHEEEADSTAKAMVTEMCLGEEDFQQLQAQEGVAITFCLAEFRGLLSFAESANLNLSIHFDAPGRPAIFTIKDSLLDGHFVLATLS
The conditions noted are these: protein: recombinant; tags: His; label: 5'-fluorescein (6-carboxyfluorescein) on HC40; blunt.

A further series concerns the target T4, LD Rad9A 94-266 (Homo sapiens, UniProt Q99638 94-266, del160-163).
T4 sequence: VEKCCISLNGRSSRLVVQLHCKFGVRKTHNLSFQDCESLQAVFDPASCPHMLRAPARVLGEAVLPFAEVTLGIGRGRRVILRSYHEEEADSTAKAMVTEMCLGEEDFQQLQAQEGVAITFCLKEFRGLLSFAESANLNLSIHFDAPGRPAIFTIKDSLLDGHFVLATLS
The conditions noted are these: protein: recombinant; tags: His; label: 5'-fluorescein (6-carboxyfluorescein) on HC40; blunt.

Another series deals with T5, WT Rad9A 1-266 (Homo sapiens, UniProt Q99638 1-266).
T5 sequence: T1 sequence with A11K, A15K, A22R, A78K
The conditions noted are these: protein: recombinant; tags: N-terminal His; label: 5'-fluorescein (6-carboxyfluorescein) on HC40; blunt.

The target in another series is T6, WT Rad9A 94-266 (Homo sapiens, UniProt Q99638 94-266).
T6 sequence: T3 sequence with A127K
The conditions noted are these: protein: recombinant; tags: His; label: 5'-fluorescein (6-carboxyfluorescein) on HC40; blunt.

For the next series, the target named is T7, TM Rad9A 1-133 (Homo sapiens, UniProt Q99638 1-133, K11A;K15A;R22A).
T7 sequence: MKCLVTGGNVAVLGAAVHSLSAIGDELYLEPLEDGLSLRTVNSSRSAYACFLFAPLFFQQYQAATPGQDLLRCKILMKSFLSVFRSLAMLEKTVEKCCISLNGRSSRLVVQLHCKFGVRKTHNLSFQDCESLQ
Particulars: protein: recombinant; tags: His; label: 5'-fluorescein (6-carboxyfluorescein) on HC40; blunt.

In a further series the target is T8, WT Rad9A 134-266 (Homo sapiens, UniProt Q99638 134-266).
T8 sequence: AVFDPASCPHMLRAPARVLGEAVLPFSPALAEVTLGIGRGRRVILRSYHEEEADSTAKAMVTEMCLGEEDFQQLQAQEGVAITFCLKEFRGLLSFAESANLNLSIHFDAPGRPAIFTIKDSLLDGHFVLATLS
The conditions noted are these: protein: recombinant; tags: N-terminal His; label: 5'-fluorescein (6-carboxyfluorescein) on HC40; blunt.

The target of a further series is T9, R223A Rad9A 94-266 (Homo sapiens, UniProt Q99638 94-266, R223A).
T9 sequence: T3 sequence with A127K, R130A
The conditions noted are these: protein: recombinant; tags: His; label: 5'-fluorescein (6-carboxyfluorescein) on HC40; blunt.

The next series concerns the target T10, DM Rad9A 94-266 (Homo sapiens, UniProt Q99638 94-266, R150A;R223A).
T10 sequence: T3 sequence with R57A, A127K, R130A
The conditions noted are these: protein: recombinant; tags: His; label: 5'-fluorescein (6-carboxyfluorescein) on HC40; blunt.

Another series concerns the target T11, WT Rad9A 1-133 (Homo sapiens, UniProt Q99638 1-133).
T11 sequence: T7 sequence with A11K, A15K, A22R
The conditions noted are these: protein: recombinant; tags: N-terminal His; label: 5'-fluorescein (6-carboxyfluorescein) on HC40; blunt.

Residue numbers refer to the chain shown, from its start.

B1: HC40/HG40 (dsDNA)
DNA 1: CCGAGGAATTCGCCTTCTGCTCCATAGCCACTGGTTGTAG
DNA 2: CTACAACCAGTGGCTATGGAGCAGAAGGCGAATTCCTCGG
One may read the Kd as the constant that tells how readily two partners part at equilibrium. Consider B1, for which the Kd stood at 1770 ± 790 nM with QM1 Rad9A 1-266; 120 ± 30 nM in the series with TM Rad9A 1-266; 6400 ± 750 nM with K220A Rad9A 94-266; 6120 ± 1270 nM in the series with LD Rad9A 94-266; 50 ± 10 nM in the series with WT Rad9A 1-266; 1500 ± 400 nM in the series with WT Rad9A 94-266. In addition, the Kd with TM Rad9A 1-133 is 7740 ± 680 nM; in the series with WT Rad9A 134-266, 3000 ± 620 nM; in the series with R223A Rad9A 94-266 it was 1170 ± 690 nM; with DM Rad9A 94-266 it was 7790 ± 880 nM; with WT Rad9A 1-133, 820 ± 150 nM.
